*1 amine or outer side, *2 acyl side, *3 side chain or, on linkers, in order; H or OH if unused. Where no end group is shown, it is not given here. [ ]: non-standard residue; d: D form. tpS = thiophosphoserine, O=C([C@H](COP(O)(O)=S)N[*:1])[*:2]
Molecular target: PP2A:B55 holoenzyme (PP2Aa, B55, PP2Ac) (UniProt P30153)
Sequence (P30153 9-589, chain 1 of 3): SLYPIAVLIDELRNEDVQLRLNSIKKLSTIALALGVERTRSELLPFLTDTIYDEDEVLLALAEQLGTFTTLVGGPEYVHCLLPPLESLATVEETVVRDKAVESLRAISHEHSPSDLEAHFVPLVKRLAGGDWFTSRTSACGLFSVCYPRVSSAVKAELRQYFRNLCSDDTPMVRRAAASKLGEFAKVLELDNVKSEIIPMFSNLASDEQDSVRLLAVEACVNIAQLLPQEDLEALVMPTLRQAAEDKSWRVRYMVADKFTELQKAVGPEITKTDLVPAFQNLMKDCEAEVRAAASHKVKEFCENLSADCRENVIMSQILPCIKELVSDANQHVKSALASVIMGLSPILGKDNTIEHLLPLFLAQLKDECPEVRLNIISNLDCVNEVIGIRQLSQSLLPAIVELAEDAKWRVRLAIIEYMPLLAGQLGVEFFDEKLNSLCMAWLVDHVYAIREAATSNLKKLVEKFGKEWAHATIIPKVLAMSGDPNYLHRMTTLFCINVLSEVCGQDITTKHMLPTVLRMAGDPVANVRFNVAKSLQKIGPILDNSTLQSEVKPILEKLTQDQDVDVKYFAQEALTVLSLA
Sequence (P63151 whole entry, chain 2 of 3, further chain): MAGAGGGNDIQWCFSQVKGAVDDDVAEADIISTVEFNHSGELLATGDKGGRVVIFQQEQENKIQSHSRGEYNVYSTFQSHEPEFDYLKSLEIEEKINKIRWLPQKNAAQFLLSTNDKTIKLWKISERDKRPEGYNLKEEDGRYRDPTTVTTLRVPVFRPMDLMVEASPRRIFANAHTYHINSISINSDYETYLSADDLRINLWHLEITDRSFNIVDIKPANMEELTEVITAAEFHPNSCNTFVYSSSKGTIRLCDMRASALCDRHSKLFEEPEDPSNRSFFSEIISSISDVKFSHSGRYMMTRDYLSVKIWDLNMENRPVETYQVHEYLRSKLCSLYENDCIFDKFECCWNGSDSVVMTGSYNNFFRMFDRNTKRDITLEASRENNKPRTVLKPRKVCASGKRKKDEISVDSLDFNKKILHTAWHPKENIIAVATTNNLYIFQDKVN
Sequence (P67775 whole entry, chain 3 of 3, further chain): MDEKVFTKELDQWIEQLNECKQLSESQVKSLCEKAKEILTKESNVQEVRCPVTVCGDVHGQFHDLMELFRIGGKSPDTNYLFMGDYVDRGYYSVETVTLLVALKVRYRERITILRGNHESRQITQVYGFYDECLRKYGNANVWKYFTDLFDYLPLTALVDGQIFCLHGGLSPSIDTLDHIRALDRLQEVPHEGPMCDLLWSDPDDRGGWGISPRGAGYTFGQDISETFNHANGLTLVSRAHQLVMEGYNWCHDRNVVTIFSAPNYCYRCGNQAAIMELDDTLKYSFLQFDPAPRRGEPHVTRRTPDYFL

B1: tpARPP19_(19–75) (domain or fragment)
chain: DKVTSPEKAEEAKLKARYPHLGQKPGGSDFLRKRLQKGQKYFD[tpS]GDYNMAKAKMKNK
modifications: also: thiophosphorylated, site not given here
IC50 of PP2A:B55 inhibition (DiFMUP), against tpARPP19: > 50 fold
